Test results: the RNAGym collection of RNA variant scans (doi:10.7554/elife.80360)

B1: HDV Ribozyme (parent)
chain: GGCCGGCAUGGUCCCAGCCUCCUCGCUGGCGCCGGCUGGGCAACAUUCCGAGGGGACCGUCCCCUCGGUAAUGGCGAAUGGGACCCA

Variants of: B1
Assay: self-cleavage, relative activity (ratio to wild type); higher = more cleavage; co-transcriptional

| Variant | self-cleavage |
| --- | --- |
| C75U G81U | 0.193 |
| C75U G81A | 0.166 |
| U79C G82C | 0.222 |
| U79C G82U | 0.256 |
| U79G G82C | 0.119 |
| G73U G82A | 0.135 |
| C75G C84G | 0.282 |
| G76A A83U | 0.875 |
| G73U G80C | 0.2 |
| G73U G80U | 0.124 |
| C75U G82A | 0.202 |
| G82C A83G | 0.233 |
| A78U A87U | 0.243 |
| G80C C84G | 0.163 |
| G80C C84U | 0.16 |
| G80A A87G | 0.424 |
| A77G U79C | 0.443 |
| A77G U79A | 0.554 |
| A77G U79G | 0.465 |
| A78G G81C | 0.148 |
| G80U C85G | 0.191 |
| A78G | 0.75 |
| A78U | 0.316 |
| A78C | 0.164 |

| Variant | self-cleavage |
| --- | --- |
| A78G A83C | 0.128 |
| U79C C84A | 0.462 |
| C75U G76U | 0.271 |
| G74C A87U | 0.304 |
| G74A G81U | 0.12 |
| G74A G81A | 0.213 |
| G81C A83G | 0.131 |
| G81C A83C | 0.222 |
| G81C A83U | 0.237 |
| G80C C85G | 0.205 |
| G76C G80U | 0.256 |
| G81A A87G | 0.258 |
| G76A C84G | 0.939 |
| G76A C84U | 1.05 |
| C84U A87G | 0.437 |
| C75A C85G | 0.116 |
| C75A C85U | 0.256 |
| G81A C86A | 0.805 |
| G74A U79C | 0.118 |
| G73U A87G | 0.452 |
| G73U C84U | 0.256 |
| A77G G80A | 0.242 |
| G81U G82C | 0.297 |
| U79A G82C | 0.0504 |

| Variant | self-cleavage |
| --- | --- |
| U79A G82U | 0.374 |
| G74U U79A | 0.268 |
| A78C G81C | 0.0665 |
| A78C G81U | 0.128 |
| A78G C84G | 0.185 |
| G82C C84G | 0.101 |
| A77G C85G | 0.655 |
| A77G C85U | 1.04 |
| A77C C84A | 0.128 |
| C75G G76C | 0.189 |
| G80C A83U | 0.164 |
| A78G G80U | 0.12 |
| A78G A87G | 0.658 |
| G81C C85U | 0.244 |
| A77C G80A | 0.0378 |
| A77C G80C | 0.179 |
| G82U A87C | 0.406 |
| C75U A83G | 0.166 |
| G82C A87U | 0.247 |
| G82U C84G | 0.249 |
| G80C C86U | 0.3 |
| G80C C86A | 0.213 |
| A78C U79A | 0.0978 |
| C75U A87G | 0.0917 |

| Variant | self-cleavage |
| --- | --- |
| G74U A78C | 0.201 |
| G74A C84G | 0.168 |
| G74A C84A | 0.389 |
| C75G A83G | 0.153 |
| G81U A87U | 0.455 |
| A77C A83C | 0.172 |
| G76A U79C | 0.964 |
| C85G C86G | 0.905 |
| A77G A83G | 0.906 |
| G82U C86U | 0.554 |
| G74C A77U | 0.104 |
| G73U A83U | 0.0462 |
| C75A G82C | 0.188 |
| C75A G82U | 0.101 |
| G76C A78U | 0.339 |
| A77U U79G | 0.161 |
| G74C A83G | 0.104 |
| A83U C85U | 0.446 |
| G80U A83C | 0.254 |
| G80U A83G | 0.253 |
| C75G C85U | 0.237 |
| A77C A87G | 0.208 |
| G80U C84U | 0.164 |
| G80U C84G | 0.332 |

| Variant | self-cleavage |
| --- | --- |
| A77C A78G | 0.151 |
| G73U G76A | 0.208 |
| G73U G76C | 0.158 |
| G81C C86G | 0.138 |
| U79G A83U | 0.122 |
| A77C G82C | 0.116 |
| C75U C85U | 0.138 |
| C75U C85A | 0.0959 |
| C75U C85G | 0.122 |
| U79A G81A | 0.0773 |
| A77C C86G | 0.302 |
| A77C C86U | 0.519 |
| A83U C84A | 0.813 |
| A83U C84G | 0.332 |
| C75G G82A | 0.208 |
| U79G G81C | 0.26 |
| G76C A83G | 0.554 |
| G76C A83U | 0.464 |
| G76C G82A | 0.432 |
| G76C G82C | 0.225 |
| A83C C84U | 0.582 |
| G82A C86G | 0.279 |
| G80A G81A | 0.185 |
| A83U C86G | 0.361 |

| Variant | self-cleavage |
| --- | --- |
| A83U C86A | 0.708 |
| G74A G76A | 0.443 |
| G81U A83U | 0.126 |
| G76A C86U | 0.92 |
| C75A G76A | 0.166 |
| C75A G76U | 0.289 |
| G74A C75U | 0.141 |
| A77U A78C | 0.332 |
| U79A A83U | 0.256 |
| G74A A87C | 0.583 |
| G74A A87U | 0.628 |
| G81A C85U | 0.163 |
| A78U C85A | 0.185 |
| A78U C85U | 0.18 |
| A83G C84U | 0.798 |
| A77G G82U | 0.277 |
| A77G G82A | 0.364 |
| C75U G80A | 0.0573 |
| C85A A87G | 0.875 |
| G76C C86U | 0.886 |
| G76U G82U | 0.483 |
| U79C A83G | 0.253 |
| G80A C86G | 0.362 |
| A78U G81C | 0.213 |

| Variant | self-cleavage |
| --- | --- |
| A78C A83G | 0.179 |
| A77U A87G | 0.591 |
| G74A A83U | 0.272 |
| G76U G81A | 0.506 |
| G80U A87U | 0.235 |
| G76A G81U | 0.437 |
| G74U C84U | 0.213 |
| A78U C84U | 0.252 |
| C75G A87C | 0.073 |
| G82A C84G | 0.232 |
| G82A C84U | 0.215 |
| G74C G81U | 0.0831 |
| C75A A87G | 0.251 |
| U79A C85A | 0.724 |
| G73U G81U | 0.208 |
| G74U G81C | 0.225 |
| G74U G81U | 0.156 |
| G74C G80U | 0.127 |
| G73U U79G | 0.374 |
| G76A C85U | 1.11 |
| C75U C86U | 0.0563 |
| G76C A77U | 0.399 |
| C84A C86U | 0.719 |
